“Also recorded” adds a separate entry of the source.
Legend:
[1] = system: Collagen Toolkits II and III; settings: Toolkit peptides from collagens II and III; ref [9]; cited from earlier work
Source text: (§1) Chondroadherin knockout mice present with ...

[2] = Affinity of untagged protein for Ni^2 + resin
Description: For purification of His-tagged fibromodulin, the filtered serum-free cell culture supernatant was adjusted to a final concentration of 20 mM Na-HEPES (pH 7.5) and loaded onto a 5-ml HisTrap Excel column (GE Healthcare) using an Äkta Purifier (GE Healthcare). The column was washed with buffer A (20 mM HEPES pH 7.5, 150 mM NaCl, 2 mM CaCl2) and the protein was eluted with 500 mM imidazole in buffer A. To remove the His-tag, fractions containing protein were incubated overnight with recombinant His-tagged TEV protease (made in E. coli using an expression vector kindly provided by Stephen Curry) while dialysing against buffer A. The reaction mixture was passed over a 5-ml HisTrap Excel column, and the flow-through containing the untagged fibromodulin protein was collected. After concentration using a Vivaspin centrifugal device (Sartorius), the fibromodulin protein was further purified by size exclusion chromatography on a Superdex 75 10/300 GL column (GE Healthcare) using buffer A as the running buffer. The purified protein ran as a single broad band of ~ 55 kDa on reducing SDS-PAGE (calculated: 41.5 kDa + 4 N-linked glycans).
The natural affinity of chondroadherin for Ni^2 + affinity resin was used to purify the untagged protein. […]

[3] = SEC-MALS, oligomeric state in solution; format: physicochemical; settings: for oligomeric state in solution / experimentally determined mass: SEC-MALS; for oligomeric state in solution: 10 mg/ml injected, pH 7.5, peak protein concentration estimated at least 50 μM; for experimentally determined mass: Superdex 75, 10 mg/ml injected, 150 mM NaCl, 20 mM HEPES (pH 7.5), 0.1 ml/min; for dissociation constant of dimer (if any): inferred from SEC-MALS, compared with decorin dimer 1.4 μM
Description: Fibromodulin and chondroadherin samples at a concentration of 10 mg/ml were injected onto a Superdex 75 10/30 column (GE Healthcare) connected to a 1260 Infinity HPLC (Agilent Technologies). The running buffer was 150 mM NaCl, 20 mM HEPES (pH 7.5) and the flow rate was 0.1 ml/min. Light scattering and refractive index changes were monitored using in-line Wyatt Mini Dawn and Optilab T-rEX detectors (Wyatt Technology Corp). The data were analysed with the Wyatt ASTRA V software. Each N-linked glycosylation site was assumed to add 2 kDa of molecular mass. The extinction coefficients for fibromodulin and chondroadherin were calculated as 32,930 and 40,715 M^− 1 cm^− 1, respectively.

[4] = system: Lysyl oxidase; settings: very N-terminus of fibromodulin; ref [9]; cited from earlier work
Source text: Previous studies with bacterially expressed fibromodulin fragments identified LRRs 5-7 and 11 (VI-VIII and XII in the numbering scheme used here) as important for collagen binding, [25]. Thus, the collagen binding site appears to be located in the C-terminal half of fibromodulin, potentially leaving the N-terminal half containing most of the surface-exposed aromatic residues free to interact with another partner.

[5] = system: collagen II; experiment: Chondroadherin binding to collagen II mapped with Toolkit II; settings: mapped with Toolkit II solid-phase assay; six of the nine triplets in II-26
Description: (§2) Recombinant purified chondroadherin was biotinylated using biotin EZ-link reagent (ThermoFisher) and dialysed into TBS to remove excess biotinylation reagent. Collagen peptides from Toolkit II and III [57], [58] were coated on a 96-well plate at 10 μg/ml in 20 mM acetic acid overnight at 4 °C. […] The following incubations were conducted at room temperature. Plates were rinsed three times with TBS and blocked for 1 h with 5% BSA in TBS. After rinsing with TBS, plates were incubated with biotinylated chondroadherin at 10 μg/ml in TBST (TBS with 0.1% Tween-20) with 0.1% BSA for 1 h. Plates were washed three times with TBST, and incubated with streptavidin-HRP (Millipore) diluted 1:20,000 in TBST with 0.1% BSA for 1 h. Plates were washed five times with TBST, and the binding was detected with TMB substrate (ThermoFisher) and stopped with 2 M sulphuric acid. The absorbance was read at 450 nm.

[6] = system: collagen II; settings: ref [13]; cited from earlier work
Source text: One of the more distant homologues of fibromodulin is chondroadherin, a class IV SLRP found in cartilage and bone. Chondroadherin-deficient mice have thinner cortical bones and longer growth plate proliferation zones, as well as mechanically softer knee surface cartilage.

[7] = system: integrin α2β1; settings: cited from earlier work
Source text: One of the more distant homologues of fibromodulin is chondroadherin, a class IV SLRP found in cartilage and bone. Chondroadherin-deficient mice have thinner cortical bones and longer growth plate proliferation zones, as well as mechanically softer knee surface cartilage. […] These positions map to the α-helix in the C-terminal cap of chondroadherin. Glu316, the last residue of the α-helix, appears to be critical for integrin binding and may interact with the metal ion-dependent adhesion site of the integrin α2 I domain [45], [46].

[8] = system: collagen I; settings: ref [11]; cited from earlier work
Source text: as §1

[9] = C-terminal 14 residues; ref [15]; cited from earlier work
Source text: The collagen-binding site on chondroadherin has not been mapped. […] These positions map to the α-helix in the C-terminal cap of chondroadherin. Glu316, the last residue of the α-helix, appears to be critical for integrin binding and may interact with the metal ion-dependent adhesion site of the integrin α2 I domain [45], [46].

[10] = system: collagen III; experiment: Chondroadherin binding to collagen III; settings: Collagen Toolkit III solid-phase assay
Description: as §2

[11] = not SEC-MALS of this work; ref [26], [32], [33]; cited from earlier work
Source text: Fig. 3 Concave face interactions in SLRP crystal structures. For each structure, two orthogonal views are shown. […] The experimentally determined mass of fibromodulin was 56.7 kDa (calculated: 41.5 kDa + 4 N-linked glycans) and that of chondroadherin was 39.6 kDa (calculated: 38.6 kDa). In comparison, using the same SEC-MALS setup, we previously determined an experimental mass of 83.5 kDa for the glycosylated decorin core protein (calculated: 36.2 kDa + 4 N-linked glycans).

B1: fibromodulin: human fibromodulin residues 19–376 of UniProt Q06828, ten N-terminal tyrosines mutated to serine, natively glycosylated (protein)
chain: GALAQYEDDPHWWFHYLRSQQSTSSDPSDPSPSETSEPSPSGVDEGPASTSGSPSPPDPRDCPQECDCPPNFPTAMYCDNRNLKYLPFVPSRMKYVYFQNNQITSIQEGVFDNATGLLWIALHGNQITSDKVGRKVFSKLRHLERLYLDHNNLTRMPGPLPRSLRELHLDHNQISRVPNNALEGLENLTALYLQHNEIQEVGSSMRGLRSLILLDLSYNHLRKVPDGLPSALEQLYMEHNNVYTVPDSYFRGAPKLLYVRLSHNSLTNNGLASNTFNSSSLLELDLSYNQLQKIPPVNTNLENLYLQGNRINEFSISSFCTVVDVVNFSKLQVLRLDGNEIKRSAMPADAPLCLRLASLIEI
modifications: N-linked glycans at Asn127, Asn166, Asn201, Asn291; left off: His-tag, N-terminal, cleaved
notes: human fibromodulin residues 19–376 of UniProt Q06828, ten N-terminal tyrosines mutated to serine, natively glycosylated
binding to Toolkit peptides [1]: bound several Toolkit peptides from both collagens II and III; also recorded: binds to KGHR-containing sites in Collagen Toolkits II and III | affinity for Ni^2 + resin [2]: substantial affinity for Ni^2 + resin | oligomeric state in solution [3]: predominantly monomeric in solution; also recorded: neither fibromodulin nor chondroadherin forms a stable dimer in solution | experimentally determined mass [3]: 56.7 kDa | dissociation constant of dimer (if any) [3]: substantially higher than that of the decorin dimer | binding to lysyl oxidase [4]: Lysyl oxidase has been shown to bind to the very N-terminus of fibromodulin

B2: chondroadherin: human chondroadherin, residues 23–359 of Uniprot O15335, untagged; vector-derived APLA sequence at the N-terminus (protein)
chain: APLACPQNCHCHSDLQHVICDKVGLQKIPKVSEKTKLLNLQRNNFPVLAANSFRAMPNLVSLHLQHCQIREVAAGAFRGLKQLIYLYLSHNDIRVLRAGAFDDLTELTYLYLDHNKVTELPRGLLSPLVNLFILQLNNNKIRELRAGAFQGAKDLRWLYLSENALSSLQPGALDDVENLAKFHVDRNQLSSYPSAALSKLRVVEELKLSHNPLKSIPDNAFQSFGRYLETLWLDNTNLEKFSDGAFLGVTTLKHVHLENNRLNQLPSNFPFDSLETLALTNNPWKCTCQLRGLRRWLEAKASRPDATCASPAKFKGQHIRDTDAFRSCKFPTKRSKKAGRH
binding to collagen II [5]: binds to a unique sequence motif in collagen II | interaction with collagen II [6]: interacts with collagen II | integrin α2β1 binding ([7]; binding site in chondroadherin, ref [44]): residues 307–318 have been identified as a binding site for integrin α2β1 | interaction with integrin α2β1 (cell-matrix interactions) ([7]; ref [14]): mediates cell-matrix interactions through binding to integrin α2β1 | binding to collagen I [8]: reported binding of chondroadherin to collagen I | heparan sulphate binding [9]: bind heparan sulphate | affinity for Ni^2 + resin [2]: substantial affinity for Ni^2 + resin | oligomeric state in solution [3]: predominantly monomeric in solution; also recorded: neither fibromodulin nor chondroadherin forms a stable dimer in solution; also recorded: at best, very weak | experimentally determined mass [3]: 39.6 kDa | dissociation constant of dimer (if any) [3]: substantially higher than that of the decorin dimer | binding to collagen III [10]: not at all to collagen III

B3: biglycan: class I SLRP core protein (protein, UniProt P21810 38-368, looked up)
Biglycan: DEEASGADTSGVLDPDSVTPTYSAMCPFGCHCHLRVVQCSDLGLKSVPKEISPDTTLLDLQNNDISELRKDDFKGLQHLYALVLVNNKISKIHEKAFSPLRKLQKLYISKNHLVEIPPNLPSSLVELRIHDNRIRKVPKGVFSGLRNMNCIEMGGNPLENSGFEPGAFDGLKLNYLRISEAKLTGIPKDLPETLNELHLDHNKIQAIELEDLLRYSKLYRLGLGHNQIRMIENGSLSFLPTLRELHLDNNKLARVPSGLPDLKLLQVVYLHSNNITKVGVNDFCPMGFGVKRAYYNGISLFNNPVPYWEVQPATFRCVTDRLAIQFGNYKK
oligomeric state in solution (literature) [11]: form stable dimers in solution

From publication PMC5618690, “Structural and functional analysis of two small leucine-rich repeat proteoglycans, fibromodulin and chondroadherin” (Matrix Biology, 2017)
